± gives the uncertainty stated by the source.

43 variants from the Human Domainome abundance scans (Beltran et al. 2025) can be followed below.

B1: Nucleolar transcription factor 1, residues 408 to 469; numbered along this chain, P17480 (parent)
chain: KRPVSAMFIFSEEKRRQLQEERPELSESELTRLLARMWNDLSEKKKAKYKAREAALKAQSER

In this data set the parent is B1. The experiment in a line: abundance fitness (aPCA) (normalised: wild type 0, dead -1); higher = more abundant; growth selection in yeast, the domain comes from the species named. Particulars: Homo sapiens.
For KRPVSAMFIFSEEKRRQLQEERPELSESELTRLLARMWNDLSEKKKAKYKAREAAVKAQSER [L56V], the abundance fitness is -0.036 ± 0.051.

As to KRPVSAMFIFSEEKRRQLQEERPELSESELTRLLARMWNDLSEKKKAKYKAREAASKAQSER [L56S], the abundance fitness was determined as 0.013 ± 0.083. As to KRPVSAMFIFSEEKRRQLQEERPELSESELTRLLARMWNDLSEKKKAKYKAREAAQKAQSER [L56Q], the abundance fitness was -0.089 ± 0.084.

For the variant KRPVSAMFIFSEEKRRQLQEERPELSESELTRLLARMWNDLSEKKKAKYKAREAAAKAQSER [L56A], the abundance fitness is -0.023 ± 0.055. Consider KRPVSAMFIFSEEKRRQLQEERPELSESELTRLLARMWNDLSEKKKAKYKAREAAIKAQSER [L56I], for which the abundance fitness worked out at 0.004 ± 0.063. The value for KRPVSAMFIFSEEKRRQLQEERPELSESELTRLLARMWNDLSEKKKAKYKAREAADKAQSER [L56D] was -0.078 ± 0.074; that for KRPVSAMFIFSEEKRRQLQEERPELSESELTRLLARMWNDLSEKKKAKYKAREAANKAQSER [L56N] was -0.157 ± 0.13. The value for KRPVSAMFIFSEEKRRQLQEERPELSESELTRLLARMWNDLSEKKKAKYKAREAAHKAQSER [L56H] was -0.05 ± 0.11; that for KRPVSAMFIFSEEKRRQLQEERPELSESELTRLLARMWNDLSEKKKAKYKAREAAMKAQSER [L56M] was -0.145 ± 0.086; that for KRPVSAMFIFSEEKRRQLQEERPELSESELTRLLARMWNDLSEKKKAKYKAREAAFKAQSER [L56F] was -0.076 ± 0.081.

Regarding KRPVSAMFIFSEEKRRQLQEERPELSESELTRLLARMWNDLSEKKKAKYKAREAAKKAQSER [L56K], the abundance fitness is -0.082 ± 0.051. The value for KRPVSAMFIFSEEKRRQLQEERPELSESELTRLLARMWNDLSEKKKAKYKAREAACKAQSER [L56C] was -0.164 ± 0.12; that for KRPVSAMFIFSEEKRRQLQEERPELSESELTRLLARMWNDLSEKKKAKYKAREAATKAQSER [L56T] was 0.01 ± 0.089; that for KRPVSAMFIFSEEKRRQLQEERPELSESELTRLLARMWNDLSEKKKAKYKAREAAGKAQSER [L56G] was -0.072 ± 0.042. As to KRPVSAMFIFSEEKRRQLQEERPELSESELTRLLARMWNDLSEKKKAKYKAREAAPKAQSER [L56P], the abundance fitness was -0.156 ± 0.066.

With KRPVSAMFIFSEEKRRQLQEERPELSESELTRLLARMWNDLSEKKKAKYKAREAARKAQSER [L56R], the abundance fitness was -0.111 ± 0.05. Consider KRPVSAMFIFSEEKRRQLQEERPELSESELTRLLARMWNDLSEKKKAKYKAREAAEKAQSER [L56E], for which the abundance fitness is -0.045 ± 0.055. As for KRPVSAMFIFSEEKRRQLQEERPELSESELTRLLARMWNDLSEKKKAKYKAREAAYKAQSER [L56Y], the abundance fitness is -0.085 ± 0.065.

Take KRPVSAMFIFSEEKRRQLQEERPELSESELTRLLARMWNDLSEKKKAKYKAREAALKAQCER [S60C]: the abundance fitness was -0.028 ± 0.077. KRPVSAMFIFSEEKRRQLQEERPELSESELTRLLARMWNDLSEKKKAKYKAREAALKAQAER [S60A]: the abundance fitness is -0.028 ± 0.046. Turning to KRPVSAMFIFSEEKRRQLQEERPELSESELTRLLARMWNDLSEKKKAKYKAREAALKAESER [Q59E], the abundance fitness is 0.009 ± 0.064. With KRPVSAMFIFSEEKRRQLQEERPELSESELTRLLARMWNDLSEKKKAKYKAREAALKADSER [Q59D], the abundance fitness is 0 ± 0.091. The result for KRPVSAMFIFSEEKRRQLQEERPELSESELTRLLARMWNDLSEKKKAKYKAREAALKAMSER [Q59M] reads 0.011 ± 0.054; that for KRPVSAMFIFSEEKRRQLQEERPELSESELTRLLARMWNDLSEKKKAKYKAREAALKATSER [Q59T], -0.029 ± 0.05. The result for KRPVSAMFIFSEEKRRQLQEERPELSESELTRLLARMWNDLSEKKKAKYKAREAALKACSER [Q59C] reads -0.076 ± 0.098; that for KRPVSAMFIFSEEKRRQLQEERPELSESELTRLLARMWNDLSEKKKAKYKAREAALKAASER [Q59A], -0.062 ± 0.052; that for KRPVSAMFIFSEEKRRQLQEERPELSESELTRLLARMWNDLSEKKKAKYKAREAALKAVSER [Q59V], -0.034 ± 0.051. For KRPVSAMFIFSEEKRRQLQEERPELSESELTRLLARMWNDLSEKKKAKYKAREAALKALSER [Q59L], the abundance fitness is -0.054 ± 0.038. Take KRPVSAMFIFSEEKRRQLQEERPELSESELTRLLARMWNDLSEKKKAKYKAREAALKAHSER [Q59H]: the abundance fitness was -0.117 ± 0.14. As to KRPVSAMFIFSEEKRRQLQEERPELSESELTRLLARMWNDLSEKKKAKYKAREAALKAYSER [Q59Y], the abundance fitness was -0.262 ± 0.1. For KRPVSAMFIFSEEKRRQLQEERPELSESELTRLLARMWNDLSEKKKAKYKAREAALKANSER [Q59N], the abundance fitness came out at 0.028 ± 0.15. As for KRPVSAMFIFSEEKRRQLQEERPELSESELTRLLARMWNDLSEKKKAKYKAREAALKAGSER [Q59G], the abundance fitness was -0.063 ± 0.054. KRPVSAMFIFSEEKRRQLQEERPELSESELTRLLARMWNDLSEKKKAKYKAREAALKAISER [Q59I]: the abundance fitness is -0.008 ± 0.065. KRPVSAMFIFSEEKRRQLQEERPELSESELTRLLARMWNDLSEKKKAKYKAREAALKAFSER [Q59F]: the abundance fitness is -0.193 ± 0.1.

For the variant KRPVSAMFIFSEEKRRQLQEERPELSESELTRLLARMWNDLSEKKKAKYKAREAALKAKSER [Q59K], the abundance fitness was 0.03 ± 0.071. KRPVSAMFIFSEEKRRQLQEERPELSESELTRLLARMWNDLSEKKKAKYKAREAALKAPSER [Q59P]: the abundance fitness is -0.056 ± 0.075. The result for KRPVSAMFIFSEEKRRQLQEERPELSESELTRLLARMWNDLSEKKKAKYKAREAALKARSER [Q59R] reads -0.027 ± 0.038; that for KRPVSAMFIFSEEKRRQLQEERPELSESELTRLLARMWNDLSEKKKAKYKAREAALKAWSER [Q59W], -0.194 ± 0.065.

As to KRPVSAMFIFSEEKRRQLQEERPELSESELTRLLARMWNDLSEKKKAKYKAREAHLKAQSER [A55H], the abundance fitness was found to be 0.003 ± 0.17. The value for KRPVSAMFIFSEEKRRQLQEERPELSESELTRLLARMWNDLSEKKKAKYKAREAMLKAQSER [A55M] was -0.047 ± 0.091; that for KRPVSAMFIFSEEKRRQLQEERPELSESELTRLLARMWNDLSEKKKAKYKAREAWLKAQSER [A55W] was -0.13 ± 0.064. The value for KRPVSAMFIFSEEKRRQLQEERPELSESELTRLLARMWNDLSEKKKAKYKAREAPLKAQSER [A55P] was -0.132 ± 0.093. The value for KRPVSAMFIFSEEKRRQLQEERPELSESELTRLLARMWNDLSEKKKAKYKAREAILKAQSER [A55I] was -0.126 ± 0.1.
